Reference: PMC5787697, “Transcriptome-wide identification of the RNA-binding landscape of the chromatin-associated protein PARP1 reveals functions in RNA biogenesis”

Experiments:
PARP1-ΔWGR [1] = molecular target: T1, PARP1-ΔWGR (human, UniProt P09874 1-1014, del518-654); test: EMSA; monomer-equivalent K, n=1.04±0.11; 25 mM Tris pH 7.5, 75 mM NaCl, 50 mM arginine, 0.1 mM TCEP, 0.1 ug/ul BSA, room temperature 30 min; 0.05 uM probe, 0-2.5 uM protein; native 10% PAGE in TBE; details: protein: recombinant; tags: His; chain copies: 2; label: 32P; single strand
PARP1-ΔZn3 [2] = molecular target: T2, PARP1-ΔZn3 (human, UniProt P09874 1-1014, del232-374); test: EMSA; monomer-equivalent K, n=1.41±0.08; 25 mM Tris pH 7.5, 75 mM NaCl, 50 mM arginine, 0.1 mM TCEP, 0.1 ug/ul BSA, room temperature 30 min; 0.05 uM probe, 0-2.5 uM protein; native 10% PAGE in TBE; details: protein: recombinant; tags: His; chain copies: 2; label: 32P; single strand
PARP1-ΔBRCT [3] = molecular target: T3, PARP1-ΔBRCT (human, UniProt P09874 1-1014, del367-494); test: EMSA; monomer-equivalent K, n=2.23±0.10; 25 mM Tris pH 7.5, 75 mM NaCl, 50 mM arginine, 0.1 mM TCEP, 0.1 ug/ul BSA, room temperature 30 min; 0.05 uM probe, 0-2.5 uM protein; native 10% PAGE in TBE; details: protein: recombinant; tags: His; chain copies: 2; label: 32P; single strand
PARP1-ΔBRCT [4] = molecular target: T3, PARP1-ΔBRCT; test: EMSA; monomer-equivalent K, n=1.94±0.11; 25 mM Tris pH 7.5, 75 mM NaCl, 50 mM arginine, 0.1 mM TCEP, 0.1 ug/ul BSA, room temperature 30 min; 0.05 uM probe, 0-2.5 uM protein; native 10% PAGE in TBE; details: protein: recombinant; tags: His; chain copies: 2; label: 32P; single strand
PARP1-ΔWGR [5] = molecular target: T1, PARP1-ΔWGR; test: EMSA; monomer-equivalent K, n=2.13±0.07; 25 mM Tris pH 7.5, 75 mM NaCl, 50 mM arginine, 0.1 mM TCEP, 0.1 ug/ul BSA, room temperature 30 min; 0.05 uM probe, 0-2.5 uM protein; native 10% PAGE in TBE; details: protein: recombinant; tags: His; chain copies: 2; label: 32P; single strand
PARP1-ΔZn3 [6] = molecular target: T2, PARP1-ΔZn3; test: EMSA; monomer-equivalent K, n=2.17±0.12; 25 mM Tris pH 7.5, 75 mM NaCl, 50 mM arginine, 0.1 mM TCEP, 0.1 ug/ul BSA, room temperature 30 min; 0.05 uM probe, 0-2.5 uM protein; native 10% PAGE in TBE; details: protein: recombinant; tags: His; chain copies: 2; label: 32P; single strand
PARP1-ΔBRCT [7] = molecular target: T3, PARP1-ΔBRCT; test: EMSA; Table 2 value not in material; 25 mM Tris pH 7.5, 75 mM NaCl, 50 mM arginine, 0.1 mM TCEP, 0.1 ug/ul BSA, room temperature 30 min; 0.05 uM probe, 0-2.5 uM protein; native 10% PAGE in TBE; details: protein: recombinant; tags: His; chain copies: 2; label: 5'-32P; single strand
PARP1-ΔZn3 [8] = molecular target: T2, PARP1-ΔZn3; test: EMSA; lowest affinity, within 2-3 fold of FL; Table 2 value not in material; 25 mM Tris pH 7.5, 75 mM NaCl, 50 mM arginine, 0.1 mM TCEP, 0.1 ug/ul BSA, room temperature 30 min; 0.05 uM probe, 0-2.5 uM protein; native 10% PAGE in TBE; details: protein: recombinant; tags: His; chain copies: 2; label: 5'-32P; single strand
PARP1-ΔWGR [9] = molecular target: T1, PARP1-ΔWGR; test: EMSA; affinity not significantly changed from FL; Table 2 value not in material; 25 mM Tris pH 7.5, 75 mM NaCl, 50 mM arginine, 0.1 mM TCEP, 0.1 ug/ul BSA, room temperature 30 min; 0.05 uM probe, 0-2.5 uM protein; native 10% PAGE in TBE; details: protein: recombinant; tags: His; chain copies: 2; label: 5'-32P; single strand
PARP1-ΔZn3 [10] = molecular target: T2, PARP1-ΔZn3; test: competition EMSA; vs N1 in same reaction; 25 mM Tris pH 7.5, 75 mM NaCl, 50 mM arginine, 0.1 mM TCEP, 0.1 ug/ul BSA, room temperature 30 min; 0.05 uM probe, 0-2.5 uM protein; native 10% PAGE in TBE; details: protein: recombinant; tags: His; label: 32P; single strand
PARP1-ΔWGR [11] = molecular target: T1, PARP1-ΔWGR; test: as above; details: protein: recombinant; tags: His; label: 32P; single strand
PARP1-ΔBRCT [12] = molecular target: T3, PARP1-ΔBRCT; test: as above; details: protein: recombinant; tags: His; label: 32P; single strand

T2 sequence (P09874 other isoform, or with tags, fused parts or gaps del232-374 | mutant): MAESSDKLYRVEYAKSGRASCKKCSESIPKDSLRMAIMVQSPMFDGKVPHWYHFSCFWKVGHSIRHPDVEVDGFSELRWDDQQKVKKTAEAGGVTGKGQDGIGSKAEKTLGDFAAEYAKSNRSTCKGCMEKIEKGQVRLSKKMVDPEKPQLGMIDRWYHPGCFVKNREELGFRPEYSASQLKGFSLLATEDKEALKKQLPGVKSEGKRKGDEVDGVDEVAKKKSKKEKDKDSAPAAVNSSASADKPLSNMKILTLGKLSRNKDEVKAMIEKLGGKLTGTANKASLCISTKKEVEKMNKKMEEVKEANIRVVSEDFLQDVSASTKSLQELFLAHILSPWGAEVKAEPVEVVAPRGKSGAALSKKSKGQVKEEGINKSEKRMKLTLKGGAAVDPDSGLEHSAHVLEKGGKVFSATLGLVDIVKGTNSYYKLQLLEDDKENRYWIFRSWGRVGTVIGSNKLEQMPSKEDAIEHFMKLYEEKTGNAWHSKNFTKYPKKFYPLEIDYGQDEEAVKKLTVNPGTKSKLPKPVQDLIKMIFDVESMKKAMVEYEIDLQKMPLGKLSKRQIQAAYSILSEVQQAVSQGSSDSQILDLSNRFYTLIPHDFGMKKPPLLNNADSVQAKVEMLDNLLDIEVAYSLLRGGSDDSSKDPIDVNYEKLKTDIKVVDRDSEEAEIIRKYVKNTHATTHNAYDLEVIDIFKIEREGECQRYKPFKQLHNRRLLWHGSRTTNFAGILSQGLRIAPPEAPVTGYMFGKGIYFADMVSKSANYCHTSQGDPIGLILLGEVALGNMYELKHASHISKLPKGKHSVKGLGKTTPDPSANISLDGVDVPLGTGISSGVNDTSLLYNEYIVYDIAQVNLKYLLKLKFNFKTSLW
T3 sequence (P09874 other isoform, or with tags, fused parts or gaps del367-494 | mutant): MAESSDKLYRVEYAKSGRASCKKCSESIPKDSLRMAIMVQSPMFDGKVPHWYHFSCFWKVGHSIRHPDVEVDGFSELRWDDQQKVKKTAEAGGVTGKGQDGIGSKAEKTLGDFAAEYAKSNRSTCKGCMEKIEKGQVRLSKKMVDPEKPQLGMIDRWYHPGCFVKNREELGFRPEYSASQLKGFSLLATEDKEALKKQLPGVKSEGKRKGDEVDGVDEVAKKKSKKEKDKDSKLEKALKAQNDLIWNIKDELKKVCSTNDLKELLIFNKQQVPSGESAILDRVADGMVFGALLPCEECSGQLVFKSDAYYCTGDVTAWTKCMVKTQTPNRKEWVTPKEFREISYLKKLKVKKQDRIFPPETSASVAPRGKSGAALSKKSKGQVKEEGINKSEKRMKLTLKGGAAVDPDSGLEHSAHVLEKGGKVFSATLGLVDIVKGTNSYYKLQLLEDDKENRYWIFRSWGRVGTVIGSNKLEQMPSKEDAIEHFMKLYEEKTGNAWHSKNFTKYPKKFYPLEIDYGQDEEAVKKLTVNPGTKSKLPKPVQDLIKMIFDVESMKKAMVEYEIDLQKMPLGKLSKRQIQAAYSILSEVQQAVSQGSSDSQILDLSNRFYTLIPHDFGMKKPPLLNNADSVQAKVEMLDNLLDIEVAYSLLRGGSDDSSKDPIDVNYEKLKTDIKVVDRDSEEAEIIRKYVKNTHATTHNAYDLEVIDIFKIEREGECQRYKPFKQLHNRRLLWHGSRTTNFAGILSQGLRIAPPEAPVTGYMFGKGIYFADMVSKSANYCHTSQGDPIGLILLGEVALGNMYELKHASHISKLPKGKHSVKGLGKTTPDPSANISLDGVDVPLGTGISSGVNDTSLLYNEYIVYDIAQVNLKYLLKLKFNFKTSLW
T1 sequence (P09874 other isoform, or with tags, fused parts or gaps del518-654 | mutant): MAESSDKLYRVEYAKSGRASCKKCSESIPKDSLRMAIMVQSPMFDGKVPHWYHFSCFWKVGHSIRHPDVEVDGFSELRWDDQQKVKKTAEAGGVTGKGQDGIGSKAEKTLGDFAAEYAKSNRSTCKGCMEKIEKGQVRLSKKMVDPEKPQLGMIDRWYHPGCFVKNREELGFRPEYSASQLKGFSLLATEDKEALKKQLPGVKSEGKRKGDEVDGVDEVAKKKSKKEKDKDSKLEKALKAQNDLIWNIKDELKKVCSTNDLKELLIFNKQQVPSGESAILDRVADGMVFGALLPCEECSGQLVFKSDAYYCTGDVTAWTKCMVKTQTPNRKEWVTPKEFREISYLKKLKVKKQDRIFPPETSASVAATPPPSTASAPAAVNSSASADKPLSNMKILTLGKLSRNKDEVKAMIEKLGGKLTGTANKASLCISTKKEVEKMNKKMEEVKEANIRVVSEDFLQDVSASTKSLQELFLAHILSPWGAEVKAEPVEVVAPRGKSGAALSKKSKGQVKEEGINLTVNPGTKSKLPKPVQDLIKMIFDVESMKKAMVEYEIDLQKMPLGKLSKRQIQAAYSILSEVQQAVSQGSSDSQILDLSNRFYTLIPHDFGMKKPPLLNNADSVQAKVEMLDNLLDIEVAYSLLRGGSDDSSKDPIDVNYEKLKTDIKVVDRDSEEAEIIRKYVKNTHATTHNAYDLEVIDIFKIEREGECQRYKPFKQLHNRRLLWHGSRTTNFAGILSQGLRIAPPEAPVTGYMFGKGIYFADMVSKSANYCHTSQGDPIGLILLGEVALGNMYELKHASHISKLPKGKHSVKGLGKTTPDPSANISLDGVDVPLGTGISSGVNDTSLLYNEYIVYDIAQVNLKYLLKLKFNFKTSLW

CGUACGCGGAAUAGUUUAAACUGU (ssRNA) [24-mer ssRNA]
Ka (PARP1-ΔWGR [1]): 3.4e+06 M⁻¹
Ka (PARP1-ΔZn3 [2]): 1.86e+06 M⁻¹
Ka (PARP1-ΔBRCT [3]): 2.38e+06 M⁻¹

CCGUACGCGGGUUUAAACGA (ssRNA) [20-mer ssRNA]
Ka (PARP1-ΔBRCT [4]): 1.19e+06 M⁻¹
Ka (PARP1-ΔWGR [5]): 1.46e+06 M⁻¹
Ka (PARP1-ΔZn3 [6]): 1.3e+06 M⁻¹

UAGGCACCGGCAUCUUGAC (ssRNA) [19-mer ssRNA]
binding result (PARP1-ΔBRCT [7]): binds
binding result (PARP1-ΔZn3 [8]): binds
binding result (PARP1-ΔWGR [9]): binds

TAGGCACCGGCATCTTGAC (ssDNA) [19-mer ssDNA]
binding signal (PARP1-ΔZn3 [10]): 23.1 ± 5.2 KDNA/KRNA
binding signal (PARP1-ΔWGR [11]): 26.5 ± 2.4 KDNA/KRNA
binding signal (PARP1-ΔBRCT [12]): 42.3 ± 1.2 KDNA/KRNA
